This test deals with nicotinate-nucleotide pyrophosphorylase (NMnPP) (Saccharomyces cerevisiae S288c) (UniProt P43619). Nature of the test: negative-stain TEM.

One may read the stoichiometry N as the number of molecules, sites or subunits per partner or assembly. For the substance “nicotinate-nucleotide pyrophosphorylase (NMnPP) (from UniProt P43619 1-295) (enzyme)”, the stoichiometry N was 6.

The record behind these values is paper doi:10.1101/2022.11.23.517371.
